For experiment [1], the target named is T1, wildtype feline IL-31 protein (Feline_IL31_wildtype) (feline).
T1 chain: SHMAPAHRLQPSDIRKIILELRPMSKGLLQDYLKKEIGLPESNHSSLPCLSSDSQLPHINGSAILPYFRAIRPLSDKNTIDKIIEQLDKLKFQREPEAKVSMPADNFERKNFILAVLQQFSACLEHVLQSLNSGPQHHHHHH
Nature of the experiment: cell-based or functional assay.

Experiment [2] concerns the target T1, wildtype feline IL-31 protein …. Nature of the experiment: Biacore, feline IL-31 chip, mAb 100 nM, share of points within parent mean +/-3 SD. Also on record: key: % of mutant data points within parent mAb mean ±3 SD. An excerpt:
The region of an antibody responsible for antigen recognition represents the paratope. A paratope is created by a combination of amino acids in the complementarity determining regions (CDRs) of both the heavy and light chain variable regions. The binding between antibody and antigen is often mediated by side chains of CDR residues with side chains or carbohydrate moieties of the antigen. To help define critical side chains involved in antibody recognition alanine scanning mutagenesis was performed on each CDR residue in both the heavy and light chain. These mutants were then individually tested for the ability to bind feline IL-31 using the biacore and evaluated for inhibition of IL-31-mediated signaling in the FCWF-4 cell based assay.
The mean response unit of four replicates of the parent mAb+/−3 standard deviations was used to generate parameters to define a threshold of response units comprising both the on- and off-rates antibody binding (FIG. 22). The percentage of data points for each mutant fell within this threshold was then used to define a “% similarity score” (FIG. 23).

B1: A03 (antibody, V domains shown)
VH: QVLLVQSGAEVRTPGASVKIFCKASGYSFTSYTIHWLRQAPAQGLEWMGNINPTSGYTENNQRFKDRLTLTADTSTNTAYMELSSLRSADTAMYYCARWGFKYDGEWSFDVWGAGTTVTVSS
VL: EIQMTQSPSSLSASPGDRVTITCRASQAISIWLSWYQQKPGNIPKVLINKASNLHIGVPSRFSGSGSGTDFTLTISSLEPEDAATYYCLQSQTYPLTFGGGTKLEIK
notes: sample ID reads A03 although it stands between A07 and A09
Turning to B1, in experiment [1], the “% Inhibition Relative to Parent (pSTAT, FCWF-4 cells)” value (“% Inhibition Relative to Parent” below) is 52.9%. In experiment [2], the “Binding Similarity score” value turned out to be 58.

B2: A26 (antibody, V domains shown)
VH: QVLLVQSGAEVRTPGASVKIFCKASGYSFTSYTIHWLRQAPAQGLEWMGNINPTSGYTENNQRFKDRLTLTADTSTNTAYMELSSLRSADTAMYYCARWGFKYDGEWSFDVWGAGTTVTVSS
VL: EIQMTQSPSSLSASPGDRVTITCRASQGISIWLSWYQQKPGNIPKVLINKASNLHIGVPSRFSGSGSGTDFTLTISSLEPEDAATYYCLQSQTYALTFGGGTKLEIK
In the case of B2, the “% Inhibition Relative to Parent” value in experiment [1] came to 43.7%. For the same molecule, in experiment [2], the “Binding Similarity score” value was determined as 20.9.

B3: A23 (antibody, V domains shown)
VH: QVLLVQSGAEVRTPGASVKIFCKASGYSFTSYTIHWLRQAPAQGLEWMGNINPTSGYTENNQRFKDRLTLTADTSTNTAYMELSSLRSADTAMYYCARWGFKYDGEWSFDVWGAGTTVTVSS
VL: EIQMTQSPSSLSASPGDRVTITCRASQGISIWLSWYQQKPGNIPKVLINKASNLHIGVPSRFSGSGSGTDFTLTISSLEPEDAATYYCLQSATYPLTFGGGTKLEIK
Turning to B3, the “% Inhibition Relative to Parent” value in experiment [1] worked out at 29.2%. The “Binding Similarity score” value in experiment [2] came out at 64.8.

B4: A09 (antibody, V domains shown)
VH: QVLLVQSGAEVRTPGASVKIFCKASGYSFTSYTIHWLRQAPAQGLEWMGNINPTSGYTENNQRFKDRLTLTADTSTNTAYMELSSLRSADTAMYYCARWGFKYDGEWSFDVWGAGTTVTVSS
VL: EIQMTQSPSSLSASPGDRVTITCRASQGASIWLSWYQQKPGNIPKVLINKASNLHIGVPSRFSGSGSGTDFTLTISSLEPEDAATYYCLQSQTYPLTFGGGTKLEIK
B4: the “% Inhibition Relative to Parent” value in experiment [1] stood at 28%. Further, in experiment [2], the “Binding Similarity score” value turned out to be 100.

B5: A15 (antibody, V domains shown)
VH: QVLLVQSGAEVRTPGASVKIFCKASGYSFTSYTIHWLRQAPAQGLEWMGNINPTSGYTENNQRFKDRLTLTADTSTNTAYMELSSLRSADTAMYYCARWGFKYDGEWSFDVWGAGTTVTVSS
VL: EIQMTQSPSSLSASPGDRVTITCRASQGISIWLSWYQQKPGNIPKVLINAASNLHIGVPSRFSGSGSGTDFTLTISSLEPEDAATYYCLQSQTYPLTFGGGTKLEIK
On to B5, for which, in experiment [1], the “% Inhibition Relative to Parent” value was 34.1%. Besides, the “Binding Similarity score” value in experiment [2] was 11.6.

B6: A13 (antibody, V domains shown)
VH: QVLLVQSGAEVRTPGASVKIFCKASGYSFTSYTIHWLRQAPAQGLEWMGNINPTSGYTENNQRFKDRLTLTADTSTNTAYMELSSLRSADTAMYYCARWGFKYDGEWSFDVWGAGTTVTVSS
VL: EIQMTQSPSSLSASPGDRVTITCRASQGISIALSWYQQKPGNIPKVLINKASNLHIGVPSRFSGSGSGTDFTLTISSLEPEDAATYYCLQSQTYPLTFGGGTKLEIK
As to B6, the “% Inhibition Relative to Parent” value in experiment [1] came to 4.4%. For the same molecule, the “Binding Similarity score” value in experiment [2] came to 2.4.

B7: A25 (antibody, V domains shown)
VH: QVLLVQSGAEVRTPGASVKIFCKASGYSFTSYTIHWLRQAPAQGLEWMGNINPTSGYTENNQRFKDRLTLTADTSTNTAYMELSSLRSADTAMYYCARWGFKYDGEWSFDVWGAGTTVTVSS
VL: EIQMTQSPSSLSASPGDRVTITCRASQGISIWLSWYQQKPGNIPKVLINKASNLHIGVPSRFSGSGSGTDFTLTISSLEPEDAATYYCLQSQTAPLTFGGGTKLEIK
Take B7: the “% Inhibition Relative to Parent” value in experiment [1] was 1.3%. Besides, the “Binding Similarity score” value in experiment [2] was determined as 4.4.

B8: A16 (antibody, V domains shown)
VH: QVLLVQSGAEVRTPGASVKIFCKASGYSFTSYTIHWLRQAPAQGLEWMGNINPTSGYTENNQRFKDRLTLTADTSTNTAYMELSSLRSADTAMYYCARWGFKYDGEWSFDVWGAGTTVTVSS
VL: EIQMTQSPSSLSASPGDRVTITCRASQGISIWLSWYQQKPGNIPKVLINKAANLHIGVPSRFSGSGSGTDFTLTISSLEPEDAATYYCLQSQTYPLTFGGGTKLEIK
As to B8, the “% Inhibition Relative to Parent” value in experiment [1] stood at 69.3%. For the same molecule, the “Binding Similarity score” value in experiment [2] is 58.

B9: A06 (antibody, V domains shown)
VH: QVLLVQSGAEVRTPGASVKIFCKASGYSFTSYTIHWLRQAPAQGLEWMGNINPTSGYTENNQRFKDRLTLTADTSTNTAYMELSSLRSADTAMYYCARWGFKYDGEWSFDVWGAGTTVTVSS
VL: EIQMTQSPSSLSASPGDRVTITCRAAQGISIWLSWYQQKPGNIPKVLINKASNLHIGVPSRFSGSGSGTDFTLTISSLEPEDAATYYCLQSQTYPLTFGGGTKLEIK
For B9, in experiment [1], the “% Inhibition Relative to Parent” value stood at 40%. Moreover, the “Binding Similarity score” value in experiment [2] is 89.7.

B10: A07 (antibody, V domains shown)
VH: QVLLVQSGAEVRTPGASVKIFCKASGYSFTSYTIHWLRQAPAQGLEWMGNINPTSGYTENNQRFKDRLTLTADTSTNTAYMELSSLRSADTAMYYCARWGFKYDGEWSFDVWGAGTTVTVSS
VL: EIQMTQSPSSLSASPGDRVTITCRASAGISIWLSWYQQKPGNIPKVLINKASNLHIGVPSRFSGSGSGTDFTLTISSLEPEDAATYYCLQSQTYPLTFGGGTKLEIK
With B10, in experiment [1], the “% Inhibition Relative to Parent” value stood at 93.6%. Besides, the “Binding Similarity score” value in experiment [2] was 74.4.

B11: A27 (antibody, V domains shown)
VH: QVLLVQSGAEVRTPGASVKIFCKASGYSFTSYTIHWLRQAPAQGLEWMGNINPTSGYTENNQRFKDRLTLTADTSTNTAYMELSSLRSADTAMYYCARWGFKYDGEWSFDVWGAGTTVTVSS
VL: EIQMTQSPSSLSASPGDRVTITCRASQGISIWLSWYQQKPGNIPKVLINKASNLHIGVPSRFSGSGSGTDFTLTISSLEPEDAATYYCLQSQTYPATFGGGTKLEIK
On to B11, for which the “% Inhibition Relative to Parent” value in experiment [1] worked out at 7.2%. For the same molecule, the “Binding Similarity score” value in experiment [2] came out at 11.7.

B12: A24 (antibody, V domains shown)
VH: QVLLVQSGAEVRTPGASVKIFCKASGYSFTSYTIHWLRQAPAQGLEWMGNINPTSGYTENNQRFKDRLTLTADTSTNTAYMELSSLRSADTAMYYCARWGFKYDGEWSFDVWGAGTTVTVSS
VL: EIQMTQSPSSLSASPGDRVTITCRASQGISIWLSWYQQKPGNIPKVLINKASNLHIGVPSRFSGSGSGTDFTLTISSLEPEDAATYYCLQSQAYPLTFGGGTKLEIK
On to B12, for which the “% Inhibition Relative to Parent” value in experiment [1] stood at 56.7%. Besides, the “Binding Similarity score” value in experiment [2] was found to be 100.

B13: A10 (antibody, V domains shown)
VH: QVLLVQSGAEVRTPGASVKIFCKASGYSFTSYTIHWLRQAPAQGLEWMGNINPTSGYTENNQRFKDRLTLTADTSTNTAYMELSSLRSADTAMYYCARWGFKYDGEWSFDVWGAGTTVTVSS
VL: EIQMTQSPSSLSASPGDRVTITCRASQGIAIWLSWYQQKPGNIPKVLINKASNLHIGVPSRFSGSGSGTDFTLTISSLEPEDAATYYCLQSQTYPLTFGGGTKLEIK
B13: the “% Inhibition Relative to Parent” value in experiment [1] came out at 26%. For the same molecule, in experiment [2], the “Binding Similarity score” value stood at 63.4.

B14: A18 (antibody, V domains shown)
VH: QVLLVQSGAEVRTPGASVKIFCKASGYSFTSYTIHWLRQAPAQGLEWMGNINPTSGYTENNQRFKDRLTLTADTSTNTAYMELSSLRSADTAMYYCARWGFKYDGEWSFDVWGAGTTVTVSS
VL: EIQMTQSPSSLSASPGDRVTITCRASQGISIWLSWYQQKPGNIPKVLINKASNAHIGVPSRFSGSGSGTDFTLTISSLEPEDAATYYCLQSQTYPLTFGGGTKLEIK
Turning to B14, the “% Inhibition Relative to Parent” value in experiment [1] is 49.4%. In addition, in experiment [2], the “Binding Similarity score” value was determined as 100.

B15: A12 (antibody, V domains shown)
VH: QVLLVQSGAEVRTPGASVKIFCKASGYSFTSYTIHWLRQAPAQGLEWMGNINPTSGYTENNQRFKDRLTLTADTSTNTAYMELSSLRSADTAMYYCARWGFKYDGEWSFDVWGAGTTVTVSS
VL: EIQMTQSPSSLSASPGDRVTITCRASQGISAWLSWYQQKPGNIPKVLINKASNLHIGVPSRFSGSGSGTDFTLTISSLEPEDAATYYCLQSQTYPLTFGGGTKLEIK
Regarding B15, in experiment [1], the “% Inhibition Relative to Parent” value is 19.3%. Further, in experiment [2], the “Binding Similarity score” value came to 25.7.

B16: A20 (antibody, V domains shown)
VH: QVLLVQSGAEVRTPGASVKIFCKASGYSFTSYTIHWLRQAPAQGLEWMGNINPTSGYTENNQRFKDRLTLTADTSTNTAYMELSSLRSADTAMYYCARWGFKYDGEWSFDVWGAGTTVTVSS
VL: EIQMTQSPSSLSASPGDRVTITCRASQGISIWLSWYQQKPGNIPKVLINKASNLHAGVPSRFSGSGSGTDFTLTISSLEPEDAATYYCLQSQTYPLTFGGGTKLEIK
Turning to B16, the “% Inhibition Relative to Parent” value in experiment [1] was found to be 29%. In addition, the “Binding Similarity score” value in experiment [2] is 31.3.

B17: A05 (antibody, V domains shown)
VH: QVLLVQSGAEVRTPGASVKIFCKASGYSFTSYTIHWLRQAPAQGLEWMGNINPTSGYTENNQRFKDRLTLTADTSTNTAYMELSSLRSADTAMYYCARWGFKYDGEWSFDVWGAGTTVTVSS
VL: EIQMTQSPSSLSASPGDRVTITCAASQGISIWLSWYQQKPGNIPKVLINKASNLHIGVPSRFSGSGSGTDFTLTISSLEPEDAATYYCLQSQTYPLTFGGGTKLEIK
As for B17, the “% Inhibition Relative to Parent” value in experiment [1] is 0%. The “Binding Similarity score” value in experiment [2] is 25.6.

The values above are taken from US20250136677A1 (ZOETIS SERVICES, published 2025).
